Assay results published in the supplement of paper PMC9112550, “Optimization of the antimicrobial peptide Bac7 by deep mutational scanning” (BMC Biology, 2022).

System: Escherichia coli TOP10
Assay: shrunken log2 fold change of peptide-encoding DNA abundance (4.5 h post-induction vs induction); higher = less antimicrobial activity (less host growth inhibition)
Conditions: time post-induction: 4.5 h; library: site-saturation at positions 5, 18, 19, 20
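Also: peptides expressed intracellularly from a pBAD plasmid library in pooled LB shake-flask culture, induced with 0.3% L-arabinose, DNA abundance read by NGS, three biological replicates, DESeq2 with apeglm shrinkage.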

| Sequence | shrunken log2 fold change |
| --- | --- |
| RRIRFRPPRLPRPRPRPSRVPRP | 0.0914 |
| RRIRFRPPRLPRPRPRPSSHPRP | -0.682 |
| RRIRFRPPRLPRPRPRPSSWPRP | -0.105 |
| RRIRFRPPRLPRPRPRPSVKPRP | -0.347 |
| RRIRFRPPRLPRPRPRPSWGPRP | -0.243 |
| RRIRFRPPRLPRPRPRPSYMPRP | -1.21 |
| RRIRFRPPRLPRPRPRPSYSPRP | -0.903 |
| RRIRFRPPRLPRPRPRPTADPRP | 0.359 |
| RRIRFRPPRLPRPRPRPTCYPRP | -0.23 |
| RRIRFRPPRLPRPRPRPTDMPRP | 0.0617 |
| RRIRFRPPRLPRPRPRPTHPPRP | -0.0806 |
| RRIRFRPPRLPRPRPRPTHQPRP | 2.65 |
| RRIRFRPPRLPRPRPRPTHSPRP | 0.207 |
| RRIRFRPPRLPRPRPRPTKNPRP | -0.0239 |
| RRIRFRPPRLPRPRPRPTLCPRP | 0.107 |
| RRIRFRPPRLPRPRPRPTLPPRP | 0.23 |
| RRIRFRPPRLPRPRPRPTMDPRP | -0.246 |
| RRIRFRPPRLPRPRPRPTMVPRP | -0.129 |
| RRIRFRPPRLPRPRPRPTMYPRP | -0.459 |
| RRIRFRPPRLPRPRPRPTNFPRP | -0.0824 |
| RRIRFRPPRLPRPRPRPTNGPRP | -0.137 |
| RRIRFRPPRLPRPRPRPTNIPRP | -0.959 |
| RRIRFRPPRLPRPRPRPTNRPRP | -0.346 |
| RRIRFRPPRLPRPRPRPTPAPRP | 0.951 |
| RRIRFRPPRLPRPRPRPTPVPRP | 0.706 |

| Sequence | shrunken log2 fold change |
| --- | --- |
| RRIRFRPPRLPRPRPRPTRFPRP | 0.429 |
| RRIRFRPPRLPRPRPRPTTIPRP | -0.548 |
| RRIRFRPPRLPRPRPRPTVEPRP | 0.0624 |
| RRIRFRPPRLPRPRPRPTVNPRP | 2.04 |
| RRIRFRPPRLPRPRPRPTVQPRP | 0.0692 |
| RRIRFRPPRLPRPRPRPVCGPRP | 0.277 |
| RRIRFRPPRLPRPRPRPVDTPRP | -0.123 |
| RRIRFRPPRLPRPRPRPVFRPRP | -0.362 |
| RRIRFRPPRLPRPRPRPVFWPRP | 0.423 |
| RRIRFRPPRLPRPRPRPVHAPRP | 0.184 |
| RRIRFRPPRLPRPRPRPVHFPRP | -0.263 |
| RRIRFRPPRLPRPRPRPVHYPRP | -0.195 |
| RRIRFRPPRLPRPRPRPVICPRP | 0.0508 |
| RRIRFRPPRLPRPRPRPVIKPRP | -0.339 |
| RRIRFRPPRLPRPRPRPVLFPRP | -0.172 |
| RRIRFRPPRLPRPRPRPVMKPRP | -0.189 |
| RRIRFRPPRLPRPRPRPVMMPRP | -0.43 |
| RRIRFRPPRLPRPRPRPVMSPRP | -0.153 |
| RRIRFRPPRLPRPRPRPVNNPRP | -0.316 |
| RRIRFRPPRLPRPRPRPVNRPRP | 0.188 |
| RRIRFRPPRLPRPRPRPVPAPRP | 0.217 |
| RRIRFRPPRLPRPRPRPVQDPRP | -0.209 |
| RRIRFRPPRLPRPRPRPVQFPRP | -0.652 |
| RRIRFRPPRLPRPRPRPVQMPRP | 0.189 |
| RRIRFRPPRLPRPRPRPVQSPRP | -0.16 |

| Sequence | shrunken log2 fold change |
| --- | --- |
| RRIRFRPPRLPRPRPRPVQWPRP | 0.184 |
| RRIRFRPPRLPRPRPRPVRIPRP | -0.0436 |
| RRIRFRPPRLPRPRPRPVTIPRP | -0.118 |
| RRIRFRPPRLPRPRPRPVVDPRP | -0.232 |
| RRIRFRPPRLPRPRPRPVYHPRP | -1.19 |
| RRIRFRPPRLPRPRPRPWAMPRP | -0.0609 |
| RRIRFRPPRLPRPRPRPWAQPRP | -0.141 |
| RRIRFRPPRLPRPRPRPWAVPRP | -0.0667 |
| RRIRFRPPRLPRPRPRPWCPPRP | -0.155 |
| RRIRFRPPRLPRPRPRPWDIPRP | -0.0124 |
| RRIRFRPPRLPRPRPRPWDSPRP | -0.21 |
| RRIRFRPPRLPRPRPRPWHDPRP | 0.0237 |
| RRIRFRPPRLPRPRPRPWKIPRP | -0.0171 |
| RRIRFRPPRLPRPRPRPWLFPRP | -0.0194 |
| RRIRFRPPRLPRPRPRPWNKPRP | -0.722 |
| RRIRFRPPRLPRPRPRPWNVPRP | -0.157 |
| RRIRFRPPRLPRPRPRPWPKPRP | 0.125 |
| RRIRFRPPRLPRPRPRPWQKPRP | -0.097 |
| RRIRFRPPRLPRPRPRPWSFPRP | -0.34 |
| RRIRFRPPRLPRPRPRPWSWPRP | -0.169 |
| RRIRFRPPRLPRPRPRPWTGPRP | -0.00822 |
| RRIRFRPPRLPRPRPRPWTQPRP | -0.959 |
| RRIRFRPPRLPRPRPRPWWDPRP | -0.0745 |
| RRIRFRPPRLPRPRPRPWWLPRP | -0.0533 |
| RRIRFRPPRLPRPRPRPWYAPRP | -0.791 |

| Sequence | shrunken log2 fold change |
| --- | --- |
| RRIRFRPPRLPRPRPRPWYDPRP | 0.13 |
| RRIRFRPPRLPRPRPRPYACPRP | 0.0338 |
| RRIRFRPPRLPRPRPRPYASPRP | -0.0651 |
| RRIRFRPPRLPRPRPRPYCWPRP | -0.652 |
| RRIRFRPPRLPRPRPRPYCYPRP | -0.749 |
| RRIRFRPPRLPRPRPRPYDEPRP | -0.526 |
| RRIRFRPPRLPRPRPRPYDMPRP | -0.209 |
| RRIRFRPPRLPRPRPRPYDSPRP | -0.924 |
| RRIRFRPPRLPRPRPRPYEPPRP | -0.204 |
| RRIRFRPPRLPRPRPRPYFSPRP | -0.245 |
| RRIRFRPPRLPRPRPRPYFVPRP | -0.59 |
| RRIRFRPPRLPRPRPRPYHSPRP | -0.0452 |
| RRIRFRPPRLPRPRPRPYIPPRP | -1.8 |
| RRIRFRPPRLPRPRPRPYKSPRP | -0.382 |
| RRIRFRPPRLPRPRPRPYKVPRP | -0.614 |
| RRIRFRPPRLPRPRPRPYLGPRP | -0.11 |
| RRIRFRPPRLPRPRPRPYLTPRP | -0.875 |
| RRIRFRPPRLPRPRPRPYMHPRP | -0.72 |
| RRIRFRPPRLPRPRPRPYMLPRP | -0.61 |
| RRIRFRPPRLPRPRPRPYMQPRP | -0.68 |
| RRIRFRPPRLPRPRPRPYMTPRP | -0.49 |
| RRIRFRPPRLPRPRPRPYMWPRP | -1.43 |
| RRIRFRPPRLPRPRPRPYNEPRP | -0.812 |
| RRIRFRPPRLPRPRPRPYQTPRP | -0.0618 |
| RRIRFRPPRLPRPRPRPYQYPRP | 0.0631 |

| Sequence | shrunken log2 fold change |
| --- | --- |
| RRIRFRPPRLPRPRPRPYTDPRP | -0.233 |
| RRIRFRPPRLPRPRPRPYTMPRP | -1.06 |
| RRIRFRPPRLPRPRPRPYTSPRP | -0.256 |
| RRIRFRPPRLPRPRPRPYVHPRP | -1.75 |
| RRIRFRPPRLPRPRPRPYVKPRP | -0.787 |
| RRIRFRPPRLPRPRPRPYVMPRP | -0.651 |
| RRIRFRPPRLPRPRPRPYVNPRP | -1.52 |
| RRIRFRPPRLPRPRPRPYWMPRP | -0.371 |
| RRIRFRPPRLPRPRPRPYWTPRP | -0.651 |
| RRIRFRPPRLPRPRPRPYWWPRP | -0.198 |
| RRIRFRPPRLPRPRPRPYYFPRP | -0.706 |
| RRIRGRPPRLPRPRPRPAAKPRP | 1.02 |
| RRIRGRPPRLPRPRPRPAALPRP | 0.912 |
| RRIRGRPPRLPRPRPRPAANPRP | 0.911 |
| RRIRGRPPRLPRPRPRPADHPRP | 0.625 |
| RRIRGRPPRLPRPRPRPAEAPRP | 1.08 |
| RRIRGRPPRLPRPRPRPAEEPRP | 1.15 |
| RRIRGRPPRLPRPRPRPAESPRP | 0.764 |
| RRIRGRPPRLPRPRPRPAGEPRP | 0.479 |
| RRIRGRPPRLPRPRPRPAHHPRP | 0.452 |
| RRIRGRPPRLPRPRPRPAHTPRP | 0.761 |
| RRIRGRPPRLPRPRPRPALFPRP | 1.23 |
| RRIRGRPPRLPRPRPRPALSPRP | 1.31 |
| RRIRGRPPRLPRPRPRPANFPRP | 0.0804 |
| RRIRGRPPRLPRPRPRPANGPRP | 0.378 |

| Sequence | shrunken log2 fold change |
| --- | --- |
| RRIRGRPPRLPRPRPRPANPPRP | 0.476 |
| RRIRGRPPRLPRPRPRPAQGPRP | 0.313 |
| RRIRGRPPRLPRPRPRPAQWPRP | 0.933 |
| RRIRGRPPRLPRPRPRPARRPRP | 0.739 |
| RRIRGRPPRLPRPRPRPAVCPRP | 0.938 |
| RRIRGRPPRLPRPRPRPAWLPRP | 0.694 |
| RRIRGRPPRLPRPRPRPAYCPRP | 0.114 |
| RRIRGRPPRLPRPRPRPAYPPRP | -0.0884 |
| RRIRGRPPRLPRPRPRPCAPPRP | 0.826 |
| RRIRGRPPRLPRPRPRPCATPRP | 2.7 |
| RRIRGRPPRLPRPRPRPCCIPRP | 0.214 |
| RRIRGRPPRLPRPRPRPCCWPRP | 0.878 |
| RRIRGRPPRLPRPRPRPCDAPRP | 0.473 |
| RRIRGRPPRLPRPRPRPCDNPRP | 0.0785 |
| RRIRGRPPRLPRPRPRPCDVPRP | -0.014 |
| RRIRGRPPRLPRPRPRPCERPRP | 0.013 |
| RRIRGRPPRLPRPRPRPCFKPRP | 0.00363 |
| RRIRGRPPRLPRPRPRPCFYPRP | 0.156 |
| RRIRGRPPRLPRPRPRPCITPRP | 0.158 |
| RRIRGRPPRLPRPRPRPCKPPRP | 0.108 |
| RRIRGRPPRLPRPRPRPCKSPRP | -0.00288 |
| RRIRGRPPRLPRPRPRPCLDPRP | -0.0991 |
| RRIRGRPPRLPRPRPRPCLTPRP | 0.496 |
| RRIRGRPPRLPRPRPRPCLVPRP | 0.761 |
| RRIRGRPPRLPRPRPRPCMGPRP | 0.289 |
